Laboratory results taken from US10533231B2, “Artificial bioluminescent enzyme” (NATIONAL INSTITUTE OF ADVANCED INDUSTRIAL SCIENCE AND …, priority 2012, dated 2020).

Assays:
COS-7 cells [1] = assay: Cytotoxic measurement using bioluminescent capsule containing ALuc16 (Example 1-13); format: cell-based; details: stimulated for two minutes, capsule SEQ ID NO: 19, LAS-4000
Method: The cytotoxicity of a chemical substance was measured using the bioluminescent capsule (SEQ ID NO: 19) containing ALuc 16 in its frame structure (FIG. 13). First, COS-7 cells were cultured in a 6-channel microslide, and a gene encoding SEQ ID NO: 19 was introduced into the cells, followed by culturing for another 16 hours. Subsequently, the cells were stimulated for two minutes with or without the cytotoxic substance (STS), and the luminescence image showing a bioluminescence intensity difference in a substrate-containing solution was evaluated using an LAS-4000 (FujiFilm).

COS-7 cells [2] = assay: Toxicity of STS by change in luminescence spectrum (Example 1-12); format: cell-based, monkey; details: STS (1 μM) stimulation vs without, 10 minutes
Method: Using the luminescence measurement device of the present invention, the toxicity of a cell death-inducing chemical substance (STS) was measured based on changes in luminescence spectrum (see FIG. 12). First, monkey kidney-derived COS-7 cells were scattered in a commercially available microslide for cell culturing (produced by ibidi), and the cells were cultured until 90% of the microslide area was filled with the cells. The cells were transfected with a plasmid encoding a bioluminescence probe, followed by culturing for 24 hours. The cells cultured in the microslide were stimulated with or without STS (final concentration: […]) for 10 minutes.
The luminescence measurement was performed in the following manner. The microslide was washed once with an […] buffer, and a substrate-containing HBSS buffer (100 μL) was simultaneously introduced into each slide channel, and the microslide was mounted on the measurement device. After the device was covered with a mirror cap, the device was further mounted on a conventional spectrum meter (AB-1850; ATTO) (FIG. 12A). The luminescence spectrum from each channel was measured (two-minute light condensation, n=3, see FIG. 12B).

COS-7 cells [3] = assay: Toxicity of STS with luminescence measurement device and luminometer (Example 1-11); format: cell-based, monkey; details: STS 1 μM, 10 minutes, membrane-localized probe
Method: Using the luminescence measurement device, the toxicity of a cell death-inducing chemical substance (STS) was measured (see FIG. 11). Monkey kidney-derived COS-7 cells were scattered in a commercially available microslide for cell culturing (produced by ibidi), and the cells were cultured until 90% of the microslide area was filled with the cells. The cells were transfected with a plasmid encoding a bioluminescence probe, followed by culturing for another 24 hours. The cells cultured in the microslide were stimulated with or without STS (final concentration: 1 μM) for 10 minutes (FIG. 11B).
The luminescence measurement was performed in the following manner. The microslide was washed once with an HBSS buffer, and a substrate-containing HBSS buffer (100 μL) was simultaneously introduced into each microslide channel, and the microslide was immediately fixed to the luminescent measurement device. […] The luminescence value was measured by changing the channels and the filters (three-second light condensation, n=3, see FIG. 11C).

COS-7 cells [4] = assay: Mammalian two-hybrid assay with luciferase reporters (Example 1-9); format: cell-based, African green monkey
Method: First, using a known gene engineering technique, a novel reporter expression vector obtained by inserting a gene encoding MpLuc4 or ALuc16 into a commercially available reporter expression vector (pG5) was constructed. In addition, pG5-GLuc, which is the result of the researchers' previous study, was also prepared (FIG. 9A).
In addition to any one of the above three types of reporter expression vectors, a vector (pACT-MyoD) expressing a muscle regulatory factor (MyoD) and a vector (pBIND-ID) expressing a transcriptional regulator (ID) were cotransfected into COS-7 cells. After culturing overnight in a cell culturing device, a lysis solution and a substrate solution produced by Promega were used to cause a luminescent reaction, and difference in luminescence intensity varying according to the reporter difference was compared.
Along with the measurement, the luminescence value from the supernatant (medium) during cell culturing was simultaneously measured.

COS-7 cells [5] = assay: Enzymatic activity confirmation of ALuc (section 3-1, 3-2); format: cell-based, African monkey; details: vs conventional copepod luciferases
Outline: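 ALuc expression vector lipofected into COS-7 cells, with unmutated GLuc as a parallel control. Lysates made about 16 h post-transfection and mixed with coelenterazine substrate. Luminescence intensity read at a chosen wavelength each minute for signal stability; full spectral scans used to detect wavelength shifts.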

COS-7 cells [6] = assay: Luminescence stability of ALucs after substrate injection (Example 1-3); format: cell-based, African green monkey; details: Promega lysis and reaction solution
Method: The luminescence stability of the artificial luciferases (ALucs) of the present invention was examined in various respects (FIG. 3). COS-7 cells containing each luciferase gene were cultured for 9 hours, and treated with a cell lysis solution produced by Promega for 20 minutes. Temporal changes in luciferase luminescence intensity after the introduction of a substrate-containing reaction solution produced by Promega were observed every five minutes (FIG. 3A).
This experiment was expanded to artificial luciferases ALuc16 to ALuc25 (FIG. 3BC).

COS-7 cells [7] = assay: Degree of extracellular secretion of ALucs (Example 1-4); format: cell-based, African green monkey; details: luminescence intensity of the medium, overnight culture
Method: Further, each luciferase (ALuc) was introduced into COS-7 cells, culturing was performed overnight, and then the amount of each luciferase (ALuc) secreted from the cells was measured based on the luminescence intensity of the medium (FIG. 4B).

COS-7 cells [8] = assay: Comparison of luminescence intensity of ALucs (Example 1-2); format: cell-based, African green monkey; details: COS-7 cultured overnight, Promega assay solution, LAS-4000
Excerpt: The artificial luciferase (ALuc) genes synthesized by the above process were subcloned into mammalian cell expression vectors (pcDNA3.1 (+)). Each expression vector was transfected with African green monkey kidney-derived COS-7 cells, and the luminescence intensity, luminescence stability, and red-shifted degree of artificial luciferases (ALucs) were compared (FIGS. 2 to 5).
First, the luminescence intensity of artificial luciferases (ALucs) was compared (FIG. 2). For the comparison, COS-7 cells containing a vector encoding each luciferase were cultured overnight, and then the relative luminescence intensity was measured by using an assay solution, which is a mixture of a cell lysis solution and a substrate, produced by Promega, and a luminescence image analyzer (LAS-4000).

[9] = Heat resistance of ALucs in lysate (Example 1-4); format: physicochemical; details: 80° C. for 10 minutes
Method: The heat resistance and degree of extracellular secretion of artificial luciferases of the present invention were measured (FIG. 4). First, to measure heat resistance, COS-7 cells containing each luciferase were lysed in cell lysis solutions produced by Promega to prepare lysates. Subsequently, same samples were allowed to stand at room temperature or heated at 80° C. for 10 minutes, and changes in luminescence intensity were compared by using a (substrate-containing) reaction solution produced by Promega.

[10] = Prolonged activity stability of ALucs secreted in medium (Example 1-19); format: physicochemical
Method: The prolonged activity stability of the artificial luciferases (ALucs) developed in the present invention was examined. First, a plasmid expressing each artificial luciferase (ALuc16, ALuc22, ALuc23, ALuc24, ALuc25, and ALuc30) (in the figure, each is referred to as A16, A22, A23, A24, A25, and A30) was introduced into COS-7 cells, and then culturing was continued for 24 hours. By the culturing, each artificial luciferase was secreted into the medium. The artificial luciferase secreted in the medium was collected, and a difference in enzymatic activity was measured under the same conditions in the following manner. On the first day (Day 0), 50 μL of assay solution (containing native coelenterazine, produced by Promega) was added to 5 μL of each medium, and the luminescence value (enzymatic activity) was measured using an LAS-4000 (produced by FujiFilm). In the same manner, the luminescence value on Day 8, Day 16, and Day 25 was compared with the luminescence value on Day 0 (FIG. 19 (A)).

[11] = tested on: stress hormone receptor (glucocorticoid receptor ligand binding domain; GR HLBD); assay: Integrated-molecule-format bioluminescent probes, ALuc16 bisection sites (Example 1-10); format: cell-based; details: presence/absence of cortisol
Excerpt: First, ALuc was bisected into two segments, and arranged right and left. A stress hormone receptor (glucocorticoid receptor ligand binding domain; GR HLBD) and its binding peptide (LXXLL motif) were respectively connected to the end of the two segments. As shown in the lower row of FIG. 10A, the working mechanism of the probe is such that a molecule is folded in the presence of a ligand, thus recovering the luminescence intensity.
In the bisection of ALuc16, the probes were named as cSimgr8 (SEQ ID NO: 21) to cSimgr14 according to its bisection point. The bisection point corresponding to each plasmid is as follows: cSimgr8 (125/126), cSimgr9 (129/130), cSimgr10 (133/134), cSimgr11 (137/138), cSimgr12 (137/138; containing a mutant at the joint portion), cSimgr13 (141/142), and cSimgr14 (146/147).

COS-7 cells [12] = assay: Luminescence characteristics of tag-containing ALucs (Example 1-22); format: cell-based; details: medium two days after gene transfer
Method: To compare the relative luminescence intensity of these luciferases, the following experiment was conducted. First, a gene encoding each luciferase was subcloned into pcDNA3.1 (+), which is a eukaryotic expression vector, and each vector was introduced into COS-7 cells. Two days after gene transfer, the relative luminescence intensity of luciferase secreted into each medium was compared using a luminescence reagent produced by Promega.

COS-7 cells [13] = assay: Luminescence intensity of tag-containing ALucs secreted into medium (Example 1-21); format: cell-based; details: culturing one day, Promega kit with nCTZ
Method: To compare the luminescence intensity of novel luciferases, a comparison experiment was performed under the same conditions as Example 1-2 (COS-7 cells, culturing for one day, using an assay kit produced by Promega) (FIG. 21 (B)). Finally, the luminescence intensity of each luciferase secreted into the medium was compared using an assay kit (containing native coelenterazine (nCTZ)) produced by Promega.

In the case of `CN[C@@H]1C[C@H]2O[C@@](C)([C@@H]1OC)n1c3ccccc3c3c4c(c5c6ccccc6n2c5c31)C(=O)NC4` [STS], the “luminescence intensity with vs without cytotoxic substance” value (COS-7 cells [1]) is reported as “two folds higher”, the “change of luminescence spectrum” value (COS-7 cells [2]) is reported as “increase in the luminescence intensity in the full wavelength” and the “increase of luminescence intensity” value (COS-7 cells [3]) is reported as “about 75%”.

B1: ALuc16: artificial luciferase, SEQ ID NO: 13 (protein)
chain: MMGIKVLFALICFALVQANPTENKDDIDIVGVEGKFGTTDLETDLFTIVEDMNVISRDTDVDANRADRGRRGKLPGKKLPLEVLKELEANAQKAGCTRGCLICLSHIKCTAKMKKWLPGRCESWEGDKETGQGGIGEAIVDIPEIPGFKDLEPMEQFIAQVDLCVDCTTGCLKGLANVKCSDLLKKWLPSRCATFASKIQAQVDKIKGAGGS
modifications: Synthetic ALuc16
For B1, the “luminescence value from the supernatant (medium)” value (COS-7 cells [4]; during cell culturing) was “slightly strong bioluminescence”, the “luminescence intensity as two-hybrid reporter” value (COS-7 cells [4]; lysate, equal conditions, vs MpLuc4 and GLuc reporters) was “highest luminescence intensity” and the “luminescence stability (general statement)” value (COS-7 cells [5]) was “remarkably stable luminescence signals”. The “luminescence intensity (initial)” value (COS-7 cells [6]) was “advantageous initial luminescence intensity”, the extracellular secretion (COS-7 cells [7]) was “relatively high extracellular secretion” and the “luminescence intensity higher than that of conventional GLuc, Renilla luciferase and MpLuc4” value (COS-7 cells [8]) was “about 50 folds”. The “change of luminescence intensity by heating” value [9] was “a remarkable reduction in luminescence intensity that may be due to heating was not observed”, the “prolonged enzymatic activity stability” value ([10]; Day 0 to Day 25) was “significant decrease in enzymatic activity” and the “remaining enzymatic (luminescence) activity vs initial” value ([10]; after 25 days) was 20%.

B2: cSimgr8: integrated-molecule-format bioluminescent probe, ALuc16 bisected at 125/126, SEQ ID NO: 21 (protein)
chain: MNALLRYLLDKDGSGIGEAIVDIPEIPGFKDLEPMEQFIAQVDLCVDCTTGCLKGLANVKCSDLLKKWLPSRCATFASKIQAQVDKIKGAGGLSGSGGNPTENKDDIDIVGVEGKFGTTDLETDLFTIVEDMNVISRDTDVDANRADRGRRGKLPGKKLPLEVLKELEANAQKAGCTRGCLICLSHIKCTAKMKKWLPGRCESWEGDKETGQGGGGGTMNLEARKTKKKIKGIQQATTGVSQETSENPGNKTIVPATLPQLTPTLVSLLEVIEPEVLYAGYDSSVPDSTWRIMTTLNMLGGRQVIAAVKWAKAIPGFRNLHLDDQMTLLQYSWMFLMAFALGWRSYRQSSANLLCFAPDLIINEQRMTLPCMYDQCKHMLYVSSELHRLQVSYEEYLCMKTLLLLSSVPKDGLKSQELFDEIRMTYIKELGKAIVKREGNSSQNWQRFYQLTKLLDSMHEVVENLLNYCFQTFLDKTMSIEFPEMLAEIITNQIPKYSNGNIKKLLFHQK
modifications: Synthetic cSimgr8 (single-chain probe)
With B2 the “S/N ratio of probe” value [11] was “good S/N ratio” and the “absolute luminescence intensity of probe” value [11] was “low absolute luminescence intensity”.

B3: ALuc34: artificial luciferase containing a Flag-tag, SEQ ID NO: 36 (protein)
chain: MMGIKVLFALICFALVQANMMDYKDDDDKVGVEGKFGTTDLETDLFTIVEDMNVISRDTDVDANRADRGRRGKLPGKKLPLEVLKELEANAQKAGCTRGCLICLSHIKCTAKMKKWLPGRCESWEGDKETGQGGIGEAIVDIPEIPGFKELAPMEQFIAQVDLCADCTTGCLKGLANVKCSALLKKWLPSRCAGFADKIQAQVDTIKGAGGS
modifications: Flag tag; Synthetic Aluc34
In the case of B3, the “luminescence stability (general statement)” value (COS-7 cells [5]) is reported as “remarkably stable luminescence signals”, the relative luminescence intensity (COS-7 cells [12]) is reported as “relatively high luminescence intensity” and the “luminescence intensity of luciferase secreted into the medium” value (COS-7 cells [13]) is reported as “relatively high luminescence intensity”.
